From patent US20260053942A1 (Astellas, published 2026)

Target: T1, human TROP2 as used in the Biacore measurements (human, UniProt P09758 27-274)
T1 sequence: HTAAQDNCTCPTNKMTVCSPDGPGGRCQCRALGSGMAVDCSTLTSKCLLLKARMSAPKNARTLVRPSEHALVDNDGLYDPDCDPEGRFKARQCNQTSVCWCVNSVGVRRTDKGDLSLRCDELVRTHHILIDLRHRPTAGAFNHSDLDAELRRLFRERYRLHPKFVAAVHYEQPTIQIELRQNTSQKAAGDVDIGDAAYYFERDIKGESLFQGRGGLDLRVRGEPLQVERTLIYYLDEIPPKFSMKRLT
Test: SPR (Biacore), format not stated

B1: 2293-C04, affinity matured anti-Trop2 antibody from a synthetic ribosome display human antibody library (antibody, V domains shown)
VH: EVQLVESGGGLVQPGGSLRLSCAASGFNISNKWIHWVRQAPGKGLEWVGWIAPSSGDTDYADSVKGRFTISADTSKNTAYLQMNSLRAEDTAVYYCAREGYNWYWYVLDYWGQGTLVTVSS
VL: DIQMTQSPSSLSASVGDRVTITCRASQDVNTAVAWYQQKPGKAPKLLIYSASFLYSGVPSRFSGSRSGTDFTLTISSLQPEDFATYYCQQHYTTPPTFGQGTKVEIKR
modifications: SEQ ID NO 17 is listed with pAcF at K42; the filing does not say whether the antibody measured by Biacore carried it
  Kd: 1.1 nM
